Earlier results, collected in paper PMC3601010, “The complete N-terminal extension of heparin cofactor II is required for maximal effectiveness as a thrombin exosite 1 ligand” (BMC Biochemistry, 2013).

Target: T1, thrombin (Homo sapiens, UniProt P00734)
T1 construct: purchased Enzyme Research, South Bend, IN; host or cells: HCII 1-75 probe made in house in E. coli TOP10
Conditions: heparin, heparan sulfate, or dermatan sulfate; ref [7]-[11]
Description: Heparin cofactor II (HCII) is a 66 kDa plasma protein and member of the serpin superfamily of protease inhibitors (reviewed in [3]). It regulates the key coagulation protease thrombin by trapping it in a covalently-linked denaturation-resistant complex. Thrombin-complexed HCII is cleaved at its reactive center peptide bond, while thrombin in the inhibitory complex, by analogy to enzymes in other serpin-enzyme complexes, is conformationally inactivated by active site distortions that render it incapable of completing the catalytic cycle of a proteolytic enzyme. The r ...

increase of thrombin inhibition rate by GAGs: three to four orders of magnitude
B1: HCII: 66 kDa plasma protein and member of the serpin superfamily of protease inhibitors (protein, UniProt P05546 20-499, looked up)
Heparin cofactor 2: GSKGPLDQLEKGGETAQSADPQWEQLNNKNLSMPLLPADFHKENTVTNDWIPEGEEDDDYLDLEKIFSEDDDYIDIVDSLSVSPTDSDVSAGNILQLFHGKSRIQRLNILNAKFAFNLYRVLKDQVNTFDNIFIAPVGISTAMGMISLGLKGETHEQVHSILHFKDFVNASSKYEITTIHNLFRKLTHRLFRRNFGYTLRSVNDLYIQKQFPILLDFKTKVREYYFAEAQIADFSDPAFISKTNNHIMKLTKGLIKDALENIDPATQMMILNCIYFKGSWVNKFPVEMTHNHNFRLNEREVVKVSMMQTKGNFLAANDQELDCDILQLEYVGGISMLIVVPHKMSGMKTLEAQLTPRVVERWQKSMTNRTREVLLPKFKLEKNYNLVESLKLMGIRMLFDKNGNMAGISDQRIAIDLFKHQGTITVNEEGTQATTVTTVGFMPLSTQVRFTVDRPFLFLIYEHRTSCLLFMGRVANPSRS
modifications: plasma-derived
